From patent US7230085B2, “Anti-DOTA antibody” (Immunomedics, Inc., priority 2001, dated 2007)
Where “and” joins values, the source holds several entries; their conditions need not be identical. Equal values may be shown once. Entries after “also recorded” stand apart in the source; their conditions may differ.

Legend:
[1] = tested on: metal complexes of DOTA-hLL2; experiment: ELISA binding of LG1 to DOTA-hLL2 metal complexes
Procedure: Immunocompetent mice were immunized mice with the macrocyclic chelate DOTA, previously coupled to a humanized immunoglobulin (hIgG). A number of mice were injected and the harvested splenocytes fused with the mouse myeloma cell line SP2/0, according to a standard technique. A total of 1800 clones were screened by ELISA for reactivity with DOTA-conjugated hIgG and hIgG alone. Initially, 25 clones were identified as secreting an IgG that bound to the IgG-DOTA conjugate, but not to the IgG. After being sub-cloned three times, only one hybrid, termed LG1, remained positive and this was adapted to grow in serum-free media. […] LG1 was purified from culture supernatant with a yield of ^˜50 mg/liter of media. […] These metals include gadolinium, gallium, indium, lead, lutetium and yttrium. Additionally, LG1 has a high affinity for a variety of DOTA compounds, showing strong reactivity starting at concentrations of ^˜1 ng/mL (^˜10^−9M), compared to previously produced anti-DOTA antibodies that had affinities measured in microgram amounts.
(§1) LG1 is tested by ELISA for binding to hLL2 and a panel of different metal complexes of DOTA-hLL2. The capture proteins are diluted to 10 μg/ml, and dilutions of LG1 are assayed. Binding is shown using a peroxidase-conjugated goat anti-mouse IgG Fc specific antibody.

hLL2 [2] = experiment: ELISA binding of LG1 to hLL2
Procedure: as §1

BSA-DOTA-Yttrium = experiment: Inhibition of LG1 binding to BSA-DOTA-Yttrium by hLL2-DOTA metal complexes (ELISA); details: LG1 0.1 μg/ml; inhibitors 10 to 0.0001 μg/ml
Procedure: The binding of LG1 to BSA-DOTA-Yttrium is also tested in the presence of a panel of hLL2-DOTA metal complexes by incubating LG1 at concentration 0.1 μg/ml with hLL2 and the DOTA-hLL2 conjugates, at concentration 10 to 0.0001 μg/ml, and then adding to ELISA plates coated with BSA-DOTA-Yttrium.

hLL2-DOTA-yttrium = experiment: Qualitative binding on size-exclusion HPLC; details: SE-HPLC
From the text: (§2) The msAb, LG1×hMN-14 (Fab′×Fab) is shown by the same analysis to bind to hLL2-DOTA-yttrium.

hLL2-DOTA = experiment: Qualitative binding on size-exclusion HPLC; details: SE-HPLC
From the text: as §2

hLL2 [3] = experiment: Qualitative binding on size-exclusion HPLC; details: SE-HPLC
From the text: as §2

hMN-14-DOTA-yttrium-90 = experiment: Qualitative binding on size-exclusion HPLC; details: SE-HPLC
[4] = tested on: biotin-D-Phe-D-Lys(DOTA-indium-111); experiment: Qualitative binding on size-exclusion HPLC; details: epsilon-linked indium-DOTA
From the text: (§3) To determine the essential features that are important to elicit LG1 binding, labeled DOTA (indium-111) was linked to a hapten, via lysine residues, on either the alpha (DOTA-Lys(HSG)-D-Tyr-Lys(HSG)-NH2) or epsilon (biotin-D-Phe-D-Lys[DOTA]) positions of one of the DOTA carboxy groups. LG1 did bind the epsilon-linked indium-DOTA, but not the alpha-linked indium DOTA. […] Thus, the antibody of the current invention is “universal” in that it may bind to any DOTA-metal complex with a pendant N-alkylacetamide group, regardless of the type of metal with which DOTA is complexed. As used herein, the phrases “universal anti-DOTA antibody” or “universally binds” are used to mean an antibody that binds to any DOTA or DOTA-metal complex with a pendant N-alkylacetamide group.
as §2

[5] = tested on: indium-111-DOTA-Phe-Lys(HSG)-D-Tyr-Lys(HSG)-NH2; experiment: Qualitative binding on size-exclusion HPLC
From the text: as §3, §2

indium-DOTA alone = experiment: LG1 binding to indium-DOTA alone
From the text: as §3

[6] = Isoelectric focusing of purified LG1; assay type: physicochemical
Procedure: LG1 cells are expanded and adapted to grow in H-SFM media in serum-free conditions. The antibody LG1 is isolated from the culture media by affinity chromatography on Protein G Sepharose with a yield of ^˜50 mg of IgG per liter of culture media. The purified antibody is analyzed by SDS polyacrylamide electrophoresis, isoelectric focusing, and its isotype is determined by ELISA with a commercially available kit (Southern Biotechnology, Birmingham, Ala.).

B1: LG1: murine monoclonal anti-DOTA antibody, IgG2b with a lambda light chain (antibody, V domains shown)
VH: EVMLVESGGGLVKPGGSLTLSCAASGFTFTAHAMSWVRQTPEKRLEWVATISGGGTYTYFPDSFQGRFTISSDNAKNTLYLQMSSLRSEDTSMYFCTRHGDYRYAFGYWGQGTLVTVSA
VL: VVTQESALTTSPGETVTLTCRSSSGAVTTNNYANWVQEKPDHLFTGLIGGTNNRAPGVPARFSGSLIGDKAALTITGAQTEDEAIYFCALWFSDHWVFGGGTELTVLG
binding to DOTA-hLL2 and its metal complexes ([1]; ELISA, gadolinium, gallium, indium, lead, lutetium, yttrium and no metal): Equivalent binding; also recorded: Identical binding; also recorded: bind equally; also recorded: bind equivalently well; also recorded: binds to gadolinium-DOTA complexes as well as it binds to the yttrium-DOTA complexes
concentration at which strong reactivity starts ([1]; ELISA, variety of DOTA compounds): ~1 ng/mL and ~10^−9 M
Kd ([1]; estimated by ELISA method to determine ligand binding affinity, read-out: affinity towards many different metal-DOTA complexes): 0.001 to 0.1 nM
binding to hLL2 (hLL2 [2]): no binding
specificity in inhibition assay (BSA-DOTA-Yttrium): anti-DOTA specific, independent of the metal being bound in the chelate ring
binding to hLL2-DOTA-yttrium (hLL2-DOTA-yttrium): positive binding
binding to hLL2-DOTA (hLL2-DOTA): positive binding
binding to hLL2 itself (hLL2 [3]): no binding
binding to hMN-14-DOTA-yttrium-90 (hMN-14-DOTA-yttrium-90): positive binding
binding to biotin-D-Phe-D-Lys(DOTA-indium-111) [4]: positive binding; also recorded: did bind
binding to alpha-amino-linked indium-111-DOTA peptide [5]: no binding and not
binding to indium-DOTA alone (indium-DOTA alone): did not bind
PI [6]: 5.85-6.85
